The values below come from patent publication US20240052061A1 (published 2024).

Experiment [1] has as its target T1, human ecto-nucleoside triphosphate diphosphohydrolase-3 (NTPDase3) (human, UniProt O75355 1-529).
T1 chain: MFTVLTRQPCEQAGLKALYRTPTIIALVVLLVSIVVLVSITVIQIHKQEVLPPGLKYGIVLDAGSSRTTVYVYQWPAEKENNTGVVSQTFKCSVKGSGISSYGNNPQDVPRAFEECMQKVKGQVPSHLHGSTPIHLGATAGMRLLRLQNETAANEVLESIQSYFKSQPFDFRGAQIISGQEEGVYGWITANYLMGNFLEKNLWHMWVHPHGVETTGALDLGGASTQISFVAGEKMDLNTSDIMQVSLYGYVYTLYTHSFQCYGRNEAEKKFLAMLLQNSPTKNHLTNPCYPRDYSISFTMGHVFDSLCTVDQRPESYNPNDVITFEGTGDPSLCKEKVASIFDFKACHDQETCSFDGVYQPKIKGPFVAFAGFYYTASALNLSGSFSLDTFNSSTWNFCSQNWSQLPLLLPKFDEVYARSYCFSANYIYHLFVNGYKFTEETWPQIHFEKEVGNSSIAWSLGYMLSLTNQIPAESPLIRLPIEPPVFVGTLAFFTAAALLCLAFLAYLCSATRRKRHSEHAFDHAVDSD
The experiment in a line: flow cytometry; RT4 cells.

Experiment [2] has as its target T1, human ecto-nucleoside triphosphate …. The experiment in a line: flow cytometry; CHO-hENTPD3 cells. A general note: Flow cytometry measures light scatter and fluorescence of single cells or particles in a stream.
Experiment [3] shares this target. The experiment in a line: flow cytometry; COS7-hENTPD3 cells.
The target is the same in experiment [4]. The experiment in a line: flow cytometry; HEK293T-hENTPD3 cells.
For experiment [5] the target is unchanged. The experiment is described as follows: flow cytometry; CHO-hENTPD3 cells.
For experiment [6] the target is unchanged. The experiment in a line: flow cytometry; COS7-hENTPD3 cells.

B1: 37H1 Hu/Ra (antibody, V domains shown)
VH: QSVEESGGRLVTPGTPLTLTCTVSGFSLSSYAVGWVRQAPGKGLEFIGIITYNGATYYASWAEGRFPISKTSSTTVDLKMTSPTTEDTATYFCARARYGGYSTNSYYLNIWGPGTLVTVSS
VL: DVVMTQTPASVSAAVGGTVTINCQASENIYRILAWYQQKPGQRPKLLIYGASNLETGVPSRFKGSGSGTEYTLTISDLECDDAATYYCQGVLWNSNDSTFGGGTEVVVKG
Take B1: the equilibrium dissociation constant (Kd) (usually the constant that tells how readily two partners part at equilibrium) in experiment [1] turned out to be 0.16 nM; in experiment [2], 2.26 nM; in experiment [3] it was 0.54 nM; in experiment [4], 1.4 nM.

B2: 42D8 Hu/Ra (antibody, V domains shown)
VH: QSVEESGGRLVTPGTPLTLTCTVSGFSLSSYAMGWVRQAPGKGLEFIGIITYNSNTYYANWAKGRFPISKTSSTTVDLKMTSPTTEDTATYFCARARYGGYSTNSYYLNIWGPGTLVTVSS
VL: DVVMTQTPASVSAAVGGTVTINCQASENIYRILAWYQQKPGQPPKLLIYGASNLETGVPSRFKGSGSGTEYTLTISDLECDDAATYYCQGVLYNSNDSTFGGGTEVVVKG
Take B2: the dissociation constant (Kd) came to 1.96 nM in experiment [2], 0.64 nM in experiment [3] and 0.55 nM in experiment [4].

B3: 4F9 Hu/Ra (antibody, V domains shown)
VH: QSVEESGGRLVTPGTPLTLTCTVSGFSLSSYAMGWVRQAPGKGLEFIGIITYNGNTYYASWAKGRFPISKTSSTTVDLKMTSPTTEDTATYFCARARYGGYSTNSYYLNIWGPGTLVTVSS
VL: DVVMTQTPASVSAAVGGTVTINCQASENIYRILAWYQQKPGQRPKLLIYGASNLETGVPSRFKGSGSGTEYTLTISDLECDDAATYYCQGVLYNSNDSTFGGGTEVVVKG
For B3, the dissociation constant (Kd) in experiment [1] was determined as 0.19 nM; in experiment [2], 1.52 nM; in experiment [3], 0.45 nM; in experiment [4] it was 0.46 nM.

B4: 16D4 Hu/Ra (antibody, V domains shown)
VH: QSVEESGGRLVTPGTPLTLTCTVSGFSLSSYAMGWVRQAPGKGLEFIGIITYNGGTYYASWAKGRFPISKTSSTTVDLKMTSPTTEDTATYFCARARYGGYSTNSYYLNIWGPGTLVTVSS
VL: DVVMTQTPASVSAAVGGTVTINCQASENIYRVLAWYQQKPGQRPKLLIYGASNLETGVPSRFKGSGSGTEYTLTISDLECDDAATYYCQGVLYDNNDSTFGGGTEVVVKG
On to B4, for which the Kd in experiment [1] was 0.2 nM; in experiment [2], 1.94 nM; in experiment [3], 0.8 nM; in experiment [4], 0.38 nM.

B5: 3E9 Hu/Ra (antibody, V domains shown)
VH: QSLEESGGDLVKPGASLTLTCTASGFSFSSSDWICWVRQAPGKGLEWIACIYAGSIGGAYFASWVNGRFTISRASSTTVTLQMTSLTAADTATYFCARSSSNGRLKLDQFDLWGPGTLVTVSS
VL: AYDMTQTPASVEVAVGGTVTINCQASQSIGGWLSWYRQKPGQPPSLLIYKASTLASGVSSRFSGTGSRTHFTLTINGVQCADAATYYCQQGSAADVANTFGGGTEVVVKG
B5: the Kd turned out to be 1.94 nM in experiment [2], 0.63 nM in experiment [3] and 1.79 nM in experiment [4].

B6: 38D12 Hu/Ra (antibody, V domains shown)
VH: QSVEESGGRLVTPGTPLTLTCTVSGFSLSSYVINWVRQAPGKGLEWIGTISSSGSTYYASWAKGRFTISTTSSTTVDLKITSPTTEDTATYFCARGADGAFISDYFNIWGPGTLVTVSS
VL: DIVMTQTPSSVSAAVGGTVTIKCQANENIDSWLAWYQQKPGQRPKLLIYYASTLASGVPSRFKGSGSGTEYTLTISDLECADGATYYCQSYDTISDYGVGFGGGTEVVVKG
Take B6: the equilibrium dissociation constant (Kd) was 2.63 nM in experiment [1], 8.3 nM in experiment [2], 2.8 nM in experiment [3] and 3.06 nM in experiment [4].

B7: 44H5 Hu/Ra (antibody, V domains shown)
VH: QEQLEESGGDLVKPEGSLTLTCTASGFDSSSTYYMCWVRQAPGKGLEWSGCIYTGGLTYYASWAKGRFTISKTSSTTVTLQMTSLTAADTATYFCASYIGSRFYMPGFSLWGPGTLVTVSS
VL: AIVMTQTPSSKSVPVGDTVTINCQASESIYSNNRLAWFQQKPGQPPKLLIYLASTLASGVPSRFKGSGSGTQFTLTISDVVCDDAATYYCAGYKGSSTDGTAFGGGTEVVVKG
For B7, the dissociation constant Kd is 1.15 nM in experiment [1], 0.95 nM in experiment [2], 0.3 nM in experiment [3] and 0.15 nM in experiment [4].

B8: PBI #30af8 hIgG1 (antibody, V domains shown)
VH: QVQLQESGGGLIQPGGSLRLSCAASGFQSDSSDYAMSWVRQAPGKGLEWVSSISGTGGSTYYADSVKGRFTISRDNSKNTLYVQMTSLTAEDTAVYYCAKVVGFSTYDYYYHYALDVWGQGTTVTVSS
VL: QPVLTQPPSASGTPGQRVTISCSGSSSNIGSNTVNWYQQLPGTAPKLLIYSDDQRPSGVPDRFSGSKSGTSASLTISGLKTEDEAGYYCQSYDTSNVVFGGGTKVTVL
With B8, the Kd came to 1.8 nM in experiment [5] and 1.26 nM in experiment [6].

B9: PBI #30af6 hIgG4 (antibody, V domains shown)
VH: QVQLQESGGGLIQPGGSLRLSCAASGFTSSSSDYAMSWVRQAPGKGLEWVSSISGSGGSTYYADSVKGRFTISRDNSKNTLYVQMTSLTAEDTAVYYCAKVFGYSMYDYYYHYALDVWGQGTTVTVSS
VL: QPVLTQPPSASGTPGQRITISCSGSSSNIGSNTVNWYQQLPGTAPKLLIYSNNQRPSGVPDRFSGSKSGTSASLTISGLKTEDEAGYYCQSDDTSNVVFGGGTKVTVL
For the molecule B9, the Kd was 2.18 nM in experiment [5] and 1.58 nM in experiment [6].

B10: PBI #30af6 hIgG1 (antibody, V domains shown)
VH: QVQLQESGGGLIQPGGSLRLSCAASGFTSSSSDYAMSWVRQAPGKGLEWVSSISGSGGSTYYADSVKGRFTISRDNSKNTLYVQMTSLTAEDTAVYYCAKVFGYSMYDYYYHYALDVWGQGTTVTVSS
VL: QPVLTQPPSASGTPGQRITISCSGSSSNIGSNTVNWYQQLPGTAPKLLIYSNNQRPSGVPDRFSGSKSGTSASLTISGLKTEDEAGYYCQSDDTSNVVFGGGTKVTVL
For B10, the Kd in experiment [5] was 1.85 nM; in experiment [6], 1.63 nM.

B11: PBI #30af4 hIgG1 (antibody, V domains shown)
VH: QVQLQESGGGLIQPGGSLRLSCAASGFTSSSSDYAMSWVRQAPGKGLEWVSSISGSGVSTYYADSVKGRFTISRDNSKNTLYVQMTSLTAEDTAVYYCAKVVGYSVYDYYYHYALDVWGQGTTVTVSS
VL: QPVLTQPPSASGTPGQRVTISCSGSSSNIGSNTVNWYQQLPGTAPKLLIYSDNQRPSGVPDRFSGSKSGTSASLTISGLKTEDEAGYYCQSDDTSNVVFGGGTKVTVL
Consider B11, for which the results for the Kd in experiment [5] and in experiment [6] were 1.62 nM and 1.26 nM, respectively.

B12: PBI #30af4 hIgG4 (antibody, V domains shown)
VH: QVQLQESGGGLIQPGGSLRLSCAASGFTSSSSDYAMSWVRQAPGKGLEWVSSISGSGVSTYYADSVKGRFTISRDNSKNTLYVQMTSLTAEDTAVYYCAKVVGYSVYDYYYHYALDVWGQGTTVTVSS
VL: QPVLTQPPSASGTPGQRVTISCSGSSSNIGSNTVNWYQQLPGTAPKLLIYSDNQRPSGVPDRFSGSKSGTSASLTISGLKTEDEAGYYCQSDDTSNVVFGGGTKVTVL
B12: the Kd is 1.82 nM in experiment [5] and 1.28 nM in experiment [6].

B13: PBI #30af7 hIgG4 (antibody, V domains shown)
VH: QVQLQESGGGLIQPGGSLRLSCAASGFTTSSSDYAMSWVRQAPGKGLEWVSSISGSGGSTYYADSVKGRFTISRDNSKNTLYVQMTSLTAEDTAVYYCAKDVGYSTYDYYYHYALDVWGQGTTVTVSS
VL: QPVLTQPPSASGTPGQRVTISCSGSSSNVGSNTVNWYQQLPGTAPKLLIYSNNQRPSGVPDRFSGSKSGTSASLTISGLKTEDEAGYYCQSYDTSNVVFGGGTKVTVL
For B13, the values for the Kd in experiment [5] and in experiment [6] were 2.61 nM and 2.83 nM, respectively.

B14: PBI #30af8 hIgG4 (antibody, V domains shown)
VH: QVQLQESGGGLIQPGGSLRLSCAASGFQSDSSDYAMSWVRQAPGKGLEWVSSISGTGGSTYYADSVKGRFTISRDNSKNTLYVQMTSLTAEDTAVYYCAKVVGFSTYDYYYHYALDVWGQGTTVTVSS
VL: QPVLTQPPSASGTPGQRVTISCSGSSSNIGSNTVNWYQQLPGTAPKLLIYSDDQRPSGVPDRFSGSKSGTSASLTISGLKTEDEAGYYCQSYDTSNVVFGGGTKVTVL
For the molecule B14, the Kd in experiment [5] was determined as 1.9 nM; in experiment [6], 1.43 nM.

B15: PBI #30af7 hIgG1 (antibody, V domains shown)
VH: QVQLQESGGGLIQPGGSLRLSCAASGFTTSSSDYAMSWVRQAPGKGLEWVSSISGSGGSTYYADSVKGRFTISRDNSKNTLYVQMTSLTAEDTAVYYCAKDVGYSTYDYYYHYALDVWGQGTTVTVSS
VL: QPVLTQPPSASGTPGQRVTISCSGSSSNVGSNTVNWYQQLPGTAPKLLIYSNNQRPSGVPDRFSGSKSGTSASLTISGLKTEDEAGYYCQSYDTSNVVFGGGTKVTVL
B15: the Kd in experiment [5] was determined as 1.87 nM; in experiment [6] it was 1.68 nM.
